Measurements taken from patent US20250002610A1 (Genmab, published 2025).

T1: human FAPα (Fibroblast activation protein alpha), cell surface expressed (human, UniProt Q12884 1-760)
T1 construct: Endogenous on human lung fibroblasts and CAFs
T1 sequence: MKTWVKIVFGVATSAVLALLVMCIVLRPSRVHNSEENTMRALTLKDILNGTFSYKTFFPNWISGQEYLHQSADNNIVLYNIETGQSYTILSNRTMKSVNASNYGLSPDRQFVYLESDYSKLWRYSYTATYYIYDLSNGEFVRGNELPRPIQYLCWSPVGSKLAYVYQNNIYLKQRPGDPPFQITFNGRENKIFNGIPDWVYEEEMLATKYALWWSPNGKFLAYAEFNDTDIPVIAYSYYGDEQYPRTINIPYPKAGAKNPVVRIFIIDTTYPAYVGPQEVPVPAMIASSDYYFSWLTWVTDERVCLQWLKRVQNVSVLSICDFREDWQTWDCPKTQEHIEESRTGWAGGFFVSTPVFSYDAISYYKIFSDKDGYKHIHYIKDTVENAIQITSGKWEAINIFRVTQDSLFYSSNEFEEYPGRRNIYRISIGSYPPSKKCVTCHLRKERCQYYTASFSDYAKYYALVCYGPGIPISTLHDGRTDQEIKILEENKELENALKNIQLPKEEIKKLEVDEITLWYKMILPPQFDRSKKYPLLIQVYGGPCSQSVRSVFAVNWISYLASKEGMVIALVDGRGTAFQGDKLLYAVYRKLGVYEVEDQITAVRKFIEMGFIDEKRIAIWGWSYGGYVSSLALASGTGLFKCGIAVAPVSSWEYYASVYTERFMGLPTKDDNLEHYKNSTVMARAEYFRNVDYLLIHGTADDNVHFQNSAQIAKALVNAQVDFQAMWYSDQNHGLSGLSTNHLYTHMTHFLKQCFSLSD

T2: cynomolgus monkey FAPα on Expi293F cells (cynomolgus monkey (Macaca fascicularis), UniProt Q12884 1-760 (human entry))
T2 sequence: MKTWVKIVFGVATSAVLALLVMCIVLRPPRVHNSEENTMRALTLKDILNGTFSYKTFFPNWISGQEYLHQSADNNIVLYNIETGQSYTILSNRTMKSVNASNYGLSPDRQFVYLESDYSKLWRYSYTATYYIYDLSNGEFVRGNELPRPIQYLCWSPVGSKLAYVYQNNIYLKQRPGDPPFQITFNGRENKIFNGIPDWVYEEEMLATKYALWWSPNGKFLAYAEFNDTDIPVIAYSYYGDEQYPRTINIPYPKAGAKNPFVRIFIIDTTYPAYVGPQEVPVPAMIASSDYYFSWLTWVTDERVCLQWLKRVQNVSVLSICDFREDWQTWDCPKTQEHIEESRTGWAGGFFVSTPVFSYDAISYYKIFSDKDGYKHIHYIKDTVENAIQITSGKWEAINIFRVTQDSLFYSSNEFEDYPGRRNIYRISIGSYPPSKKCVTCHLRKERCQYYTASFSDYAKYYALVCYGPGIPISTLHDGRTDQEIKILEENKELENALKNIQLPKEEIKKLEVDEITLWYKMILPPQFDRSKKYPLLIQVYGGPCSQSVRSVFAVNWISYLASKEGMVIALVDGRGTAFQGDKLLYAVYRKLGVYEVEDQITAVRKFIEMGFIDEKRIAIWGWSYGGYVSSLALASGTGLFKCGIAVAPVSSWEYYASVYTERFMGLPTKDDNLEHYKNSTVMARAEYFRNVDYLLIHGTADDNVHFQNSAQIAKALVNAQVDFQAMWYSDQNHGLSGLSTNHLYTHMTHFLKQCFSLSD

T3: human DR4 (Death Receptor 4), cell surface expressed on human tumor cell lines (human, UniProt O00220 24-468)
T3 construct: also called TNFRSF10A; TRAIL-R1
T3 sequence: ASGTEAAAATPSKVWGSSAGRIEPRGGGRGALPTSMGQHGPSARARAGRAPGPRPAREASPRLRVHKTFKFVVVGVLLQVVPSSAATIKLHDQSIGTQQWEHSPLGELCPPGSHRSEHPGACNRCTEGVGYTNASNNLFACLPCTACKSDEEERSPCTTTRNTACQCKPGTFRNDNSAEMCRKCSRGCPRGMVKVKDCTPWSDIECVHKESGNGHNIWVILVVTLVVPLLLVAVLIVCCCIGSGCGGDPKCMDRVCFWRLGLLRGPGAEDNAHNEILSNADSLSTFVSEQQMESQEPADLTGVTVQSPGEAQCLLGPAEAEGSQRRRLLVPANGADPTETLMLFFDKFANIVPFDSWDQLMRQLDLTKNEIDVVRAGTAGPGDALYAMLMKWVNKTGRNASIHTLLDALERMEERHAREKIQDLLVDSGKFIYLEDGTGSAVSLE


Experiments:
[1] = biological target: T1, human FAPα (Fibroblast activation …); test: flow cytometry, Expi293F cells expressing human FAPα, n = 1
Procedure: (§1) Binding of BisG1-FAPα-FERL/DR4-FERR, BisG1-FAPα-FEAL/b12-FEAR and IgG1-FAPα-FERL to FAPα of species commonly used for nonclinical toxicology studies was assessed by flow cytometry using Expi293F cells transiently expressing FAPα from different animal species. IgG1-b12 was included as negative control.
(§2) Expi293F cells expressing recombinant FAPα from various species (human, cynomolgus monkey, dog, pig, rat or mouse) were seeded (20,000 cells/well) in 96-Well round bottom plates (Greiner Bio-one, Cat #650101). Antibody dilutions were prepared using FACS buffer, consisting of PBS (Capricorn Scientific, Cat #PBS-10XA, diluted to 1×PBS in distilled water)+1% BSA (Roche, Cat #10735086001)+0.02% Sodium Azide (Bio-World, Cat #41920044-3). Plates were centrifuged, supernatant was removed, and cells were resuspended in 100 μL of antibody dilutions (concentration range 30-0.00017 μg/mL with three-fold serial dilutions using FACS buffer) of BisG1-FAPα-FERL/DR4-FERR, BisG1-FAPα-FEAL/b12-FEAR, IgG1-FAPα-FERL and IgG1-b12 and incubated for 30 min at 4° C. […] After 30 min incubation at 4° C., cells were washed with FACS buffer and resuspended in FACS buffer supplemented with TO-PRO-3 Iodide viability marker (Invitrogen, Cat #T3605, diluted 1:4,000). Antibody binding to viable cells (gMFI of PE on TO-PRO-3 negative cells) was analyzed by flow cytometry on a FACS Celesta and FACS_Diva software (first two experiments) or iQue® 3 and FlowJo software (last experiment). gMFI was determined and visualized using GraphPad Prism. Binding curves were analyzed using nonlinear regression analysis. The concentration (pg/mL) at which 50% of the maximal effect was observed (EC₅₀) was derived from the fitted curves.

[2] = biological target: T2, cynomolgus monkey FAPα on Expi293F cells; test: flow cytometry, Expi293F cells expressing cynomolgus monkey FAPα, n = 3
Procedure: as §1, §2

[3] = biological target: T3, human DR4 (Death Receptor 4), cell …; test: flow cytometry, HCT-15 cells, n = 1
[4] = biological target: T3, human DR4 (Death Receptor 4), cell …; test: flow cytometry, HCT-15 cells, n = 2

Row | Binder | EC50 [1] | EC50 [2] | EC50 [3] | EC50 [4]
1 | BisG1-FAPα-FEAL/b12-FEAR (bispecific antibody, human IgG1, kappa, Fab-arm exchange of IgG1-FAPα-FEAL and IgG1-b12-FEAR) heavy 1: EVQLLESGGGLVQPGGSPRLSCEASGFTFSSYALSWVRQAPGKGLEWVSAISGSGGGRYYADSVKGRFTISRDNSKNTLFLQMNSLRAEDTAVYYCAKEGYSSSGTYWDHWGQGTLVTVSSASTKGPSVFPLAPSSKSTSGGTAALGCLVKDYFPEPVTVSWNSGALTSGVHTFPAVLQSSGLYSLSSVVTVPSSSLGTQTYICNVNHKPSNTKVDKRVEPKSCDKTHTCPPCPAPEFEGGPSVFLFPPKPKDTLMISRTPEVTCVVVAVSHEDPEVKFNWYVDGVEVHNAKTKPREEQYNSTYRVVSVLTVLHQDWLNGKEYKCKVSNKALPAPIEKTISKAKGQPREPQVYTLPPSREEMTKNQVSLTCLVKGFYPSDIAVEWESNGQPENNYKTTPPVLDSDGSFLLYSKLTVDKSRWQQGNVFSCSVMHEALHNHYTQKSLSLSPG light 1: AIQMTQSPSSVSASVGDRVTITCRASQGVSSWLAWYQQKPGRAPKLLIYVASTLQSGVPSRFSGSGSGTDFTLTINSLQPEDFATYYCQQANSFPPTFGQGTRLEMKRTVAAPSVFIFPPSDEQLKSGTASVVCLLNNFYPREAKVQWKVDNALQSGNSQESVTEQDSKDSTYSLSSTLTLSKADYEKHKVYACEVTHQGLSSPVTKSFNRGEC heavy 2: QVQLVQSGAEVKKPGASVKVSCQASGYRFSNFVIHWVRQAPGQRFEWMGWINPYNGNKEFSAKFQDRVTFTADTSANTAYMELRSLRSADTAVYYCARVGPYSWDDSPQDNYYMDVWGKGTTVIVSSASTKGPSVFPLAPSSKSTSGGTAALGCLVKDYFPEPVTVSWNSGALTSGVHTFPAVLQSSGLYSLSSVVTVPSSSLGTQTYICNVNHKPSNTKVDKRVEPKSCDKTHTCPPCPAPEFEGGPSVFLFPPKPKDTLMISRTPEVTCVVVAVSHEDPEVKFNWYVDGVEVHNAKTKPREEQYNSTYRVVSVLTVLHQDWLNGKEYKCKVSNKALPAPIEKTISKAKGQPREPQVYTLPPSREEMTKNQVSLTCLVKGFYPSDIAVEWESNGQPENNYKTTPPVLDSDGSFFLYSRLTVDKSRWQQGNVFSCSVMHEALHNHYTQKSLSLSPG light 2: EIVLTQSPGTLSLSPGERATFSCRSSHSIRSRRVAWYQHKPGQAPRLVIHGVSNRASGISDRFSGSGSGTDFTLTITRVEPEDFALYYCQVYGASSYTFGQGTKLERKRTVAAPSVFIFPPSDEQLKSGTASVVCLLNNFYPREAKVQWKVDNALQSGNSQESVTEQDSKDSTYSLSSTLTLSKADYEKHKVYACEVTHQGLSSPVTKSFNRGEC | 0.14 µg/mL | 0.35 µg/mL |  | 
2 | IgG1-FAPα-FERL (antibody, Bivalent monoclonal IgG1 kappa) heavy: EVQLLESGGGLVQPGGSPRLSCEASGFTFSSYALSWVRQAPGKGLEWVSAISGSGGGRYYADSVKGRFTISRDNSKNTLFLQMNSLRAEDTAVYYCAKEGYSSSGTYWDHWGQGTLVTVSSASTKGPSVFPLAPSSKSTSGGTAALGCLVKDYFPEPVTVSWNSGALTSGVHTFPAVLQSSGLYSLSSVVTVPSSSLGTQTYICNVNHKPSNTKVDKRVEPKSCDKTHTCPPCPAPEFERGPSVFLFPPKPKDTLMISRTPEVTCVVVDVSHEDPEVKFNWYVDGVEVHNAKTKPREEQYNSTYRVVSVLTVLHQDWLNGKEYKCKVSNKALPAPIEKTISKAKGQPREPQVYTLPPSREEMTKNQVSLTCLVKGFYPSDIAVEWESNGQPENNYKTTPPVLDSDGSFLLYSKLTVDKSRWQQGNVFSCSVMHEALHNHYTQKSLSLSPG light: AIQMTQSPSSVSASVGDRVTITCRASQGVSSWLAWYQQKPGRAPKLLIYVASTLQSGVPSRFSGSGSGTDFTLTINSLQPEDFATYYCQQANSFPPTFGQGTRLEMKRTVAAPSVFIFPPSDEQLKSGTASVVCLLNNFYPREAKVQWKVDNALQSGNSQESVTEQDSKDSTYSLSSTLTLSKADYEKHKVYACEVTHQGLSSPVTKSFNRGEC | 0.11 µg/mL | 0.16 µg/mL |  | 
3 | IgG1-DR4-FERR (antibody, V domains shown, Bivalent monoclonal IgG1 lambda) VH: QVQLQESGPGLVKPSGTLSLTCAVSGGSISSYSWWSWIRQPPGKGLEWIGELYHSGSTNYNPSLKSRVTISVDKSKNQFSLKLRSVTAADTAVYYCVRGVATIDYWGQGTLVTVSS VL: QSALTQPPSASGSPGQSVTISCTGTSSDVGGYNFVSWYQQDPGKAPKLLIYEVTKRPSGVPDRFSGSKSGNTASLTVSGLQAEDEADYYCSSYAGSNNVMFGGGTKLTVLG |  |  | 0.18 µg/mL | 0.17 µg/mL
